{"source": "patent US12433934B2", "about": "“Methods and compositions for preventing and treating atherosclerosis and related diseases” (Shanghai Puyou Biomedical Co., Ltd., priority 2018, dated 2025)", "molecules": {"B1": {"name": "sDSS1-M1: sDSS1 mutant protein 1, SEQ ID NO: 15 (protein)", "chain": "MSEKKQPVDLGLLEEDDEFEEFPAEDWAGLDEDEDAHVWEDNWDDDNVEDDFSNQLRATVLLMILVAETPYGAYVLHQKGRMASAFLAA"}, "B2": {"name": "sDSS1-M2: sDSS1 mutant protein 2, SEQ ID NO: 16 (protein)", "chain": "B1 chain with A67V, A73V, A83V, A88V, A89V"}}, "key": {"ApoE−/− mice": {"test_system": "ApoE−/− mice", "test": "Atherosclerotic plaques of the aorta (en face oil red O staining) in high-fat diet ApoE−/− mice", "format": "in vivo", "settings": "ATV 40 mg/kg orally once a day, 13 weeks, high-fat diet", "procedure": "FIGS. 15-16. The sDSS1 protein inhibits the formation of atherosclerotic plaques in ApoE−/− mice. […] At the end of the injection, the aorta was dissected for oil red O staining, and the area of plaques was calculated.\nExperimental animals: ApoE−/− mice, 8-week-old, male, were purchased from Nanjing Biomedical Research Institute of Nanjing University. The experimental animals were housed in an animal room for one week before the experiment.\nExperimental method: ApoE−/− mice were fed with high-fat diet containing 0.25% cholesterol starting from the age of 9 weeks. From the 10th week of high-fat diet feeding, the mice were randomly divided into three groups according to the total cholesterol level, with 10 mice in each group. […] At the 22nd week of high-fat diet feeding, that is, the 13th week of administration, the animals were executed and dissected, and the whole aorta was separated. The separated aorta was stained with en face oil red O to evaluate the formation of atherosclerotic plaques."}, "oxLDL": {"target": "T1, oxLDL (Homo sapiens, UniProt P04114)", "T1 construct": "purchased Solarbio H7980", "T1 sequence (P04114 28-4563)": "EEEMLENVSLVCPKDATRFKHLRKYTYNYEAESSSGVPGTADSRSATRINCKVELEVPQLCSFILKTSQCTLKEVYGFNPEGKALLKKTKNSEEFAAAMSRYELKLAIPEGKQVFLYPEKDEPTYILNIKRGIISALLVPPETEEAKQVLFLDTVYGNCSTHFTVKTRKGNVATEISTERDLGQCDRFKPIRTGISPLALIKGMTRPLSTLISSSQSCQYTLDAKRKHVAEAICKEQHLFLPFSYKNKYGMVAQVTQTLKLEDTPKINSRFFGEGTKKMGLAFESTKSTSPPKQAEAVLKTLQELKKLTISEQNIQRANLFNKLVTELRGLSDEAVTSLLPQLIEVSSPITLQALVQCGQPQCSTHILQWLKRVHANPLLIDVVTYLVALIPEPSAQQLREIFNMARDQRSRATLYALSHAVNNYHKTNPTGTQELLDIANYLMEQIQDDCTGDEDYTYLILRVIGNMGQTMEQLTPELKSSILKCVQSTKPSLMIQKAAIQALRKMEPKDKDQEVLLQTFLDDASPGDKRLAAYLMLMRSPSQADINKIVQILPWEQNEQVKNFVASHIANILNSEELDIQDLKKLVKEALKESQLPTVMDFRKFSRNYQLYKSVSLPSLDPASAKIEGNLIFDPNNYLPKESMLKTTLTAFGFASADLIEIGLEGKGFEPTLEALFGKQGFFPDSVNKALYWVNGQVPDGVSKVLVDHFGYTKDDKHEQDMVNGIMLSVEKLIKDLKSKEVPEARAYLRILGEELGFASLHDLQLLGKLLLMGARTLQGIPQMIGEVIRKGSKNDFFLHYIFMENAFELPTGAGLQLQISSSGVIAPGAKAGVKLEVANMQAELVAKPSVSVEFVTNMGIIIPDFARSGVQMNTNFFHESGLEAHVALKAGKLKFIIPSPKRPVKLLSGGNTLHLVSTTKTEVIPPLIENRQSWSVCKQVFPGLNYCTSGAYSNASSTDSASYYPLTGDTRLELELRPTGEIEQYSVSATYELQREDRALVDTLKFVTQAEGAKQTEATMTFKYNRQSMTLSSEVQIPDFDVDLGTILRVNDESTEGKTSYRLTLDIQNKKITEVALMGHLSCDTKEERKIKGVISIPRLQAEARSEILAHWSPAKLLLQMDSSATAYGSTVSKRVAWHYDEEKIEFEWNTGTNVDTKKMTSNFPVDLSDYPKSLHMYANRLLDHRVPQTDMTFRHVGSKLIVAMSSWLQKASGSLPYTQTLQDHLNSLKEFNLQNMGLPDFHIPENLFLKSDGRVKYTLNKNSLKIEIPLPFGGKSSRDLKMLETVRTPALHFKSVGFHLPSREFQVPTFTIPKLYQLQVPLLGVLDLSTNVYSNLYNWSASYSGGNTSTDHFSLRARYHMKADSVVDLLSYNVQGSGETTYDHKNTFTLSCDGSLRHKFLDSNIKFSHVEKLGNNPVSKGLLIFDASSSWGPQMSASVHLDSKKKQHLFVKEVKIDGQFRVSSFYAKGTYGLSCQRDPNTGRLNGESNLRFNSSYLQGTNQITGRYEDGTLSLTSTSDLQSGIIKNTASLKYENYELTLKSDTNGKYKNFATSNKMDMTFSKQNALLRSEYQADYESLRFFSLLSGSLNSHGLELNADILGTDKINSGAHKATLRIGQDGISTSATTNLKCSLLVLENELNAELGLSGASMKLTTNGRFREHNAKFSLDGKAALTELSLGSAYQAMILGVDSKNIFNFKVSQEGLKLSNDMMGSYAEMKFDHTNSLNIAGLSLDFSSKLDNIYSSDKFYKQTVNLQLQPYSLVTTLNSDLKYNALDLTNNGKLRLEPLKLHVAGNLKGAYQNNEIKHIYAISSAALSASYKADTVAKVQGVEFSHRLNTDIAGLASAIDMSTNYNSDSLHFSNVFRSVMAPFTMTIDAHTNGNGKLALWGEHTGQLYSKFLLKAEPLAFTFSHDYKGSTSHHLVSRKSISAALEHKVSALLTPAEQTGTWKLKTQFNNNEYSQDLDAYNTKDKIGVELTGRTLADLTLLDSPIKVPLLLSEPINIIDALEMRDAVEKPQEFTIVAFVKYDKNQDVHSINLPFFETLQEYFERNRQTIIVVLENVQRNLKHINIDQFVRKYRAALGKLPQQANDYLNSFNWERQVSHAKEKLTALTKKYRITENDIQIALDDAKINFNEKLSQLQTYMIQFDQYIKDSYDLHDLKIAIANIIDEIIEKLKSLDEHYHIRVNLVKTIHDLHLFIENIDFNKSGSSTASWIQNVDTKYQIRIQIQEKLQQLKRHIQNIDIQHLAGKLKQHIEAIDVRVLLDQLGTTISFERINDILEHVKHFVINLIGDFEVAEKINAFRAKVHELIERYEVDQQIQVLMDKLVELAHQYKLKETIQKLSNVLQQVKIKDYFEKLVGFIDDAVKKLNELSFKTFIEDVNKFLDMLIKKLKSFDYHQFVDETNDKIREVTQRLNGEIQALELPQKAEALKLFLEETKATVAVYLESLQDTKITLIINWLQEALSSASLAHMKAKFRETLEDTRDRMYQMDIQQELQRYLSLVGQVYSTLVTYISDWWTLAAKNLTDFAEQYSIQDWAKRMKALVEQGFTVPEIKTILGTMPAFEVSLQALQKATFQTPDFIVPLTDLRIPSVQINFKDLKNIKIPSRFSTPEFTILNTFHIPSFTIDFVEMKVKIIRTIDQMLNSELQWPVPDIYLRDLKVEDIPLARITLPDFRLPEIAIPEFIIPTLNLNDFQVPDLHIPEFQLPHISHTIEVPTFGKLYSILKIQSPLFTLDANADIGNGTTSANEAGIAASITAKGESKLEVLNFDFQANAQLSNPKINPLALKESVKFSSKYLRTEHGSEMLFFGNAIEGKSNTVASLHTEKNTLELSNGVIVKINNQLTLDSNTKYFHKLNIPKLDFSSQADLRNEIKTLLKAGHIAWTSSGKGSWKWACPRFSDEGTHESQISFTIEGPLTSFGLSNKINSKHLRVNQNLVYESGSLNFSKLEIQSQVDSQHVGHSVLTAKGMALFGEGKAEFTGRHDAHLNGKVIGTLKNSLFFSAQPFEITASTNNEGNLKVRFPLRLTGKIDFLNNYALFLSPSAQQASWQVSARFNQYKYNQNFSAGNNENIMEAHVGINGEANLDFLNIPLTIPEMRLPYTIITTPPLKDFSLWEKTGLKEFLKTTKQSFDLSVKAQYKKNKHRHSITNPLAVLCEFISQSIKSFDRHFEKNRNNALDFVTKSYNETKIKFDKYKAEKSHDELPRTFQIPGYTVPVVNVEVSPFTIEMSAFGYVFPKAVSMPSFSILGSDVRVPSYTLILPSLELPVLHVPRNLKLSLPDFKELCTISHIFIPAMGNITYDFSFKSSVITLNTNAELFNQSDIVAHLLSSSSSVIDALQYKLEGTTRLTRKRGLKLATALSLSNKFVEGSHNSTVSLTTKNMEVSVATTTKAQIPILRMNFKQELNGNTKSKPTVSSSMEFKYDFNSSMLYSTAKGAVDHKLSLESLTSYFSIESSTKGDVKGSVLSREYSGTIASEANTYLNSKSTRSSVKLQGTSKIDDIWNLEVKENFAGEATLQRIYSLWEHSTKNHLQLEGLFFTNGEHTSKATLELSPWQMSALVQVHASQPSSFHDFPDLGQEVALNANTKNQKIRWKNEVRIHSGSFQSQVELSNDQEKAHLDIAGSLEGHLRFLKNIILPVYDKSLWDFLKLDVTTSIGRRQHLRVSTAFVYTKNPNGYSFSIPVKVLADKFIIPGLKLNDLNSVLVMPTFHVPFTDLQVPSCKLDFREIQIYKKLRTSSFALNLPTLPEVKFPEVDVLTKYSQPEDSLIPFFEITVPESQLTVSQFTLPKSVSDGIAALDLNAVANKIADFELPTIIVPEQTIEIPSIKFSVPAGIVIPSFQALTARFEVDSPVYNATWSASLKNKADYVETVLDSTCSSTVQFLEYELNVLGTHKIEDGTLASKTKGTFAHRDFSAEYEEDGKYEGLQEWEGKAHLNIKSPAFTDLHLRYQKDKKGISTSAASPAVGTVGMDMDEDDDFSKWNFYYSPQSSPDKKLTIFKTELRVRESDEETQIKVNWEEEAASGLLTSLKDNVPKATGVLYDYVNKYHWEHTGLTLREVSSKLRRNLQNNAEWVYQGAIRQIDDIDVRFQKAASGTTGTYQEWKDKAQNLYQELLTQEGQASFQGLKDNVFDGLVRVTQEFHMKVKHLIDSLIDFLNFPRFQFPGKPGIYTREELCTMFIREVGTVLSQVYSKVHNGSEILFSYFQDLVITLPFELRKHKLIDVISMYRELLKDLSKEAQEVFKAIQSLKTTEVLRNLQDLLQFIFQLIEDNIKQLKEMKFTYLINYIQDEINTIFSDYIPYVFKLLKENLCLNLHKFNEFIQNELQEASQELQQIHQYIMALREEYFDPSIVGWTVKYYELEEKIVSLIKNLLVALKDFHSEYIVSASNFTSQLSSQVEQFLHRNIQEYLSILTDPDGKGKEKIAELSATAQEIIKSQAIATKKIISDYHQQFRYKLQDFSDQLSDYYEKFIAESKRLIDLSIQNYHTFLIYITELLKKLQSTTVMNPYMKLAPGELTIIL", "test": "Co-incubation with oxLDL, SDS-PAGE separation, Coomassie brilliant blue staining", "format": "binding", "settings": "phosphate buffer pH 7.2", "procedure": "Experimental materials: sDSS1 protein, sDSS1 mutant protein 1 (sDSS1-M1, SEQ ID NO: 15), sDSS1 mutant protein 2 (sDSS1-M2, SEQ ID NO: 16), oxidized low density lipoprotein (oxLDL) (Solarbio, Article No.: H7980); low density lipoprotein (LDL) (Solarbio, Article No.: H7960).\nExperimental method: 2 μg of oxLDL or LDL was mixed with 6 μg of sDSS1 protein or 10 μg of sDSS1 protein in a 1.5 ml EP tube in the presence of 20 mM sodium acetate/acetic acid buffer (pH 4.5) or 20 mM phosphate buffer (pH 7.2) respectively, and incubated at 37° C. for 12 h. A loading buffer was added in the incubated product and evenly mixed, and the obtained mixture was denatured at 100° C. for 10 min to prepare a loading sample. The resulting sample was subjected to electrophoretic separation via polyacrylamide gel electrophoresis (SDS-PAGE). After separation, the SDS-PAGE gel was stained with Coomassie brilliant blue to display protein strips. The sDSS1-M1 or sDSS1-M2 protein was respectively mixed and incubated with oxLDL, and treated in the same way. 15 μL of the sample was used for SDS-PAGE electrophoresis separation."}}, "note": "Substitutions are numbered along the chain they refer to. “Also recorded” adds a separate entry of the source."}
{"molecule": "CC(C)c1c(C(=O)Nc2ccccc2)c(-c2ccccc2)c(-c2ccc(F)cc2)n1CC[C@@H](O)C[C@@H](O)CC(=O)O", "note": "[ATV, Atorvastatin, reference compound]", "values": [{"measurement": "Area of atherosclerotic plaques (en face oil red O) vs model group", "setting": "ApoE−/− mice", "value": "significantly reduced"}]}
{"molecule": "B1", "values": [{"measurement": "Interaction with oxLDL (complex on SDS-PAGE gel)", "setting": "oxLDL", "value": "can also interact with oxLDL to form complexes; also recorded: interacted with the oxLDL protein"}]}
{"molecule": "B2", "values": [{"measurement": "Interaction with oxLDL (complex on SDS-PAGE gel)", "setting": "oxLDL", "value": "can also interact with oxLDL to form complexes; also recorded: interacts with the oxLDL protein"}]}
